US20210147570A1

Key:
[1] = target: human CD73 (cell-surface) (human) (UniProt P21589); experiment: CD73 binding in cell lines (human), EC50 range; method not stated
[2] = target: human CD73 (cell-surface) (human) (UniProt P21589); experiment: cell-based or functional assay
[3] = target: human CD73 (cell-surface) (human) (UniProt P21589); experiment: CD73 binding in cell lines (human), median EC50; method not stated

Sequence of human CD73 (cell-surface) (human) (P21589 27-549): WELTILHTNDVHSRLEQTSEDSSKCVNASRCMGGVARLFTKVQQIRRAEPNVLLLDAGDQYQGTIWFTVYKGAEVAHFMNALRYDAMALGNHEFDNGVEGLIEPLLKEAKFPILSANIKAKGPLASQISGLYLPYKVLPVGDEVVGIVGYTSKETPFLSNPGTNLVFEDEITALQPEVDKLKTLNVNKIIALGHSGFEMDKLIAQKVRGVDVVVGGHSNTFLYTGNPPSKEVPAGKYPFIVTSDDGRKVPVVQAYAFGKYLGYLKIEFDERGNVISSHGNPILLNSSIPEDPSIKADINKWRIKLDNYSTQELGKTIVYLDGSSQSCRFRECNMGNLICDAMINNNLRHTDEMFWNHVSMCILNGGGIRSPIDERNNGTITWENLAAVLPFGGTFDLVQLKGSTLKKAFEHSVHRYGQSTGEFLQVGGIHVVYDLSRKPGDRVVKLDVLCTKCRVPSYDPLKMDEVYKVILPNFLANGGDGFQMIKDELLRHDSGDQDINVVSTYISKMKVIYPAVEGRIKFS

EC50 [1]: 0.3 to 0.67 nM | Cellular Enzyme Inhibition (blockade of AMP processing), median EC50 [2]: 0.39 nM | Internalization, max level [2]: 97.5% | Internalization, median EC50 [2]: 1.2 nM | EC50 [3]: 0.5 nM
B1: CD73.4-IgG2C219S.IgG1.1f (antibody, V domains shown)
VH: QVQLVESGGGVVQPGRSLRLSCAASGFTFSNYGMHWVRQAPGKGLEWVAVILYDGSNKYYPDSVKGRFTISRDNSKNTLYLQMNSLRAEDTAVYYCARGGSSWYPDSFDIWGQGTMVTVSS
VL: DIQMTQSPSSLSASVGDRVTITCRASQGISSWLAWYQQKPEKAPKSLIYAASSLQSGVPSRFSGSGSGTDFTLTISSLQPEDFATYYCQQYNSYPLTFGGGTKVEIKR
